Columns and labels:
CXCL12 (CXC Ligand 12) [1] = biological target: T1, CXCL12 (CXC Ligand 12) (UniProt O62657 22-89); assay: BLI, biotinylated HMGB1 construct on streptavidin sensor, CXCL12 0-150 µM in solution; Michaelis-Menten (saturation) Req fit
T1 construct: mature; Untagged in BLI and NMR; CXCL12-His6 was used at 1 µM on the HMGB1 SPOT peptide arrays; also called CXCL12A-c021, wt 1-67, no tag; CXCL12-His6
Description: (§1) Pre-hydrated streptavidin Octet Biosensors (FortéBio 18-5019) were coated with 4 μM solutions of biotinylated HMGB1 proteins in 10 mM HEPES, pH 7.5, 150 mM NaCl (Base buffer-BB) plus, 0.5 mM TCEP (60″ baseline, 60″ binding). Nonspecific binding was minimized by incubation for 3′ in BB+1% BSA+0.05% Tween-20 (Kinetics Buffer, KB) prior to kinetics assays. […] An OctetRed 384 instrument was used for these experiments. Kinetics data were extracted with DataAnalysis 9.0 (FortéBio). Response at equilibrium REq was plotted against concentration in a Michaelis-Menten saturation plot to calculate kD/Bₘₐₓ (saturation plot of concentration against rEq). Kinetic rates (association rate; kₒₙ and dissociation rate; koff) were derived from the direct measurements of each parameter from all the association and dissociation steps in the interferogram, and fitted to a horizontal line (mean) across all measurements. Data from each replicate run were pooled in the same manner to calculate the overall mean. For measuring RAGE binding kinetics to HMGB1, 15 μg/mL RAGE-Fc in PBS+0.1% BSA+0.02% Tween-20 was immobilized on the surface of anti-IgG biosensors (AHC, 18-5060) over 30″ and dipped in serial concentrations of each HMGB1 construct (60″ baseline, 200″ association/dissociation) and fitted in the same manner to derive kinetic parameters.

CXCL12 (CXC Ligand 12) [2] = biological target: T1, CXCL12 (CXC Ligand 12); assay: BLI, biotinylated HMGB1 construct on streptavidin sensor, CXCL12 0-150 µM in solution; kinetics rates derived from interferogram
Description: as §1

[3] = biological target: T2, RAGE-Fc chimera protein (BioTechne, 1145-RG) (UniProt Q15109 24-344); assay: BLI: RAGE-Fc on AHC sensors, HMGB1 construct 0-25 µM in solution; kinetics plot
T2 construct: Bought reagent; also called Fc-RAGE; not shown: CH domain of IgG (Fc)
T2 sequence (Q15109 24-344, change not shown): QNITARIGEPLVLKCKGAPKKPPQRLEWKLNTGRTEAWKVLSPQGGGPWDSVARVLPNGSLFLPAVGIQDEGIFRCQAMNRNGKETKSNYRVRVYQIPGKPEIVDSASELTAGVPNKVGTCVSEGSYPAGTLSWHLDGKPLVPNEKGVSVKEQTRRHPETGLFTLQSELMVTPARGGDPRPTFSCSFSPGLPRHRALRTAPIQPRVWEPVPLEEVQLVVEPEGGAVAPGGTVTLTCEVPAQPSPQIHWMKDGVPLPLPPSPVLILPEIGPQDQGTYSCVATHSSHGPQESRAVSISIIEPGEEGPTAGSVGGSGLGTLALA
Description: (§2) RAGE-Fc was immobilized in the surface of AHC sensors and dipped in rising concentration of different HMGB1 constructs. Two experiments were run with different concentration ranges: the three columns of graphs in the left, 0 to 22.22 μM HMGB1 over 9 steps; on the right, 0 to 25 μM over 7 steps. Both are color-coded by concentration (top). Colors indicate the specific construct concentration. Each graph corresponds to a single sensor (replicate).
as §1

[4] = biological target: T2, RAGE-Fc chimera protein (BioTechne, …); assay: BLI: RAGE-Fc on AHC sensors, HMGB1 construct 0-25 µM in solution; saturation fit
Description: as §2, §1

[5] = biological target: T2, RAGE-Fc chimera protein (BioTechne, …); assay: hybrid ELISA: HMGB1 construct coated, RAGE-Fc titrated, anti-human IgG-HRP, OD450 normalized to DS-HMGB1; saturation fit
Description: (§3) Nonspecific binding was blocked by incubation with 10% BSA in PBS for 2 h, at 20-25° C. A concentration range of RAGE-Fc chimera protein (BioTechne, 1145-RG; 0-640 nM in 1:4 dilutions) was added in 10% BSA/PBS and allowed to bind for 2 h, at 4° C. Bound FC chimera was detected by incubation with Anti-Human IgG HRP (Agilent Dako P021402-2) diluted 1:10000 in 1% BSA/PBS for 2 h, at 20-25° C. Between each of these 3 steps, the plate was washed with 100 μL PBST, three times.
(§4) OD 450 was measured as a readout (FluoStar OMEGA, BMG Labtech) and plotted as a saturation fit against 2× RAGE-Fc concentration (as the chimera is a RAGE dimer).

[6] = biological target: T2, RAGE-Fc chimera protein (BioTechne, …); assay: hybrid ELISA: HMGB1 construct coated, RAGE-Fc titrated, anti-human IgG-HRP, OD450 normalized to DS-HMGB1; saturation fit (Kd cell: Invalid fit)
Description: as §3, §4

[7] = biological target: T2, RAGE-Fc chimera protein (BioTechne, …); assay: BLI, RAGE-Fc on AHC sensors
Description: as §1

T1 sequence (P48061 22-89): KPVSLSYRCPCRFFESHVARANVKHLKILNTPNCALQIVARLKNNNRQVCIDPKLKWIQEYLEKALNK

Row | Binder | Kd (CXCL12 (CXC Ligand 12) [1]) | Kd (CXCL12 (CXC Ligand 12) [2]) | koff (CXCL12 (CXC Ligand 12) [2]) | kon (CXCL12 (CXC Ligand 12) [2]) | Kd [3] | koff [3] | kon [3] | Kd [4] | Kd [5] | Bmax [6] | fold association rate against FR-HMGB1 [7] | fold dissociation rate against FR-HMGB1 [7] | Kd [7]
1 | DS-HMGB1 1-184 (ligand, oxidized Box A (disulfide Cys 22-Cys 44)) GKGDPKKPRGKMSSYAFFVQTCREEHKKKHPDASVNFSEFSKKCSERWKTMSAKEKGKFEDMAKADKARYEREMKTYIPPKGETKKKFKDPNAPKRPPSAFFLFCSEYRPKIKGEHPGLSIGDVAKKLGEMWNNTAADDKQPYEKKAAKLKEKYEKDIAAYRAKGKPDAAKKGVVKAEKSKKKK | – | – | – | – | 0.2 µM | 0.067 s⁻¹ | 349000 M⁻¹ s⁻¹ | 0.5 µM | 0.0339 µM | – | – | – | –
2 | DS Box A 1-88 (full HMG Box construct with flanking regions) (ligand, oxidized (disulfide Cys 22-Cys 44), also called oxidized Box A alone) GKGDPKKPRGKMSSYAFFVQTCREEHKKKHPDASVNFSEFSKKCSERWKTMSAKEKGKFEDMAKADKARYEREMKTYIPPKGETKKKF | – | – | – | – | 15.6 µM | 0.439 s⁻¹ | 28000 M⁻¹ s⁻¹ | 53.4 µM | – | 0.08 nM | – | – | –
3 | DS-HMGB1 1-164 (ligand, oxidized Box A (disulfide Cys 22-Cys 44)) GKGDPKKPRGKMSSYAFFVQTCREEHKKKHPDASVNFSEFSKKCSERWKTMSAKEKGKFEDMAKADKARYEREMKTYIPPKGETKKKFKDPNAPKRPPSAFFLFCSEYRPKIKGEHPGLSIGDVAKKLGEMWNNTAADDKQPYEKKAAKLKEKYEKDIAAYRAK | – | – | – | – | 0.9 µM | 0.152 s⁻¹ | 178000 M⁻¹ s⁻¹ | 3.1 µM | – | 0.2 nM | – | – | –
4 | fully-reduced HMGB1, full-length (1-214) (ligand, cysteines reduced (Cys 22, Cys 44, Cys 105), Tags differ by assay: biotinylated (c011) in BLI with CXCL12, His6-tagged in the reverse peptide array, TEV-cleaved in the RAGE ELISA and BLI; also called FR-HMGB1; FR FL-HMGB1 (c011)) GKGDPKKPRGKMSSYAFFVQTCREEHKKKHPDASVNFSEFSKKCSERWKTMSAKEKGKFEDMAKADKARYEREMKTYIPPKGETKKKFKDPNAPKRPPSAFFLFCSEYRPKIKGEHPGLSIGDVAKKLGEMWNNTAADDKQPYEKKAAKLKEKYEKDIAAYRAKGKPDAAKKGVVKAEKSKKKKEEEEDEEDEEDEEEEEDEEDEDEEEDDDDE | 15.3 µM | 20.9 µM | 0.181 s⁻¹ | 9000 M⁻¹ s⁻¹ | 0.8 µM | 0.041 s⁻¹ | 51000 M⁻¹ s⁻¹ | 2.3 µM | 0.0861 µM | – | – | – | –

Continued, values first:

Row | Kd (CXCL12 (CXC Ligand 12) [1]) | Kd (CXCL12 (CXC Ligand 12) [2]) | koff (CXCL12 (CXC Ligand 12) [2]) | kon (CXCL12 (CXC Ligand 12) [2]) | Kd [3] | koff [3] | kon [3] | Kd [4] | Kd [5] | Bmax [6] | fold association rate against FR-HMGB1 [7] | fold dissociation rate against FR-HMGB1 [7] | Kd [7] | Binder
5 | 17.5 µM | 18.7 µM | 0.312 s⁻¹ | 17000 M⁻¹ s⁻¹ | – | – | – | – | – | – | – | – | – | FR-HMGB1 Box A 8-78 (helical-only) (ligand, biotinylated in BLI, also called minimal Box A 8-78; c027; not shown: biotinylation tag (BLI) or His6 tag (reverse peptide array)) PRGKMSSYAFFVQTCREEHKKKHPDASVNFSEFSKKCSERWKTMSAKEKGKFEDMAKADKARYEREMKTYI
6 | 65 µM | 39 µM | 0.64 s⁻¹ | 16000 M⁻¹ s⁻¹ | – | – | – | – | – | – | – | – | – | FR-HMGB1 Box B 94-162 (helical-only) (ligand, also: biotin or His6 tag in some assays, sequence not given here, also called HMGB1A-c028; not shown: C-terminal Avi / biotinylation tag (BLI, NMR) or His6 tag (reverse peptide array)) PKRPPSAFFLFCSEYRPKIKGEHPGLSIGDVAKKLGEMWNNTAADDKQPYEKKAAKLKEKYEKDIAAYR
7 | 12.6 µM | 6.1 µM | 0.079 s⁻¹ | 13000 M⁻¹ s⁻¹ | – | – | – | – | – | – | – | – | – | FR-HMGB1 Box A 1-88 (full HMG Box with flanking regions) (ligand, biotinylated in BLI, also called extended box A 1-88; c037; not shown: biotinylation tag) GKGDPKKPRGKMSSYAFFVQTCREEHKKKHPDASVNFSEFSKKCSERWKTMSAKEKGKFEDMAKADKARYEREMKTYIPPKGETKKKF
8 | – | – | – | – | 1.3 µM | 0.206 s⁻¹ | 164000 M⁻¹ s⁻¹ | 5.5 µM | – | 0.06 nM | 3 fold | 5 fold | – | dBB12L (double Box B HMGB1 construct with 12-residue linker) (ligand, also called dBB12L-HMGB1; dBB-HMGB1) KDPNAPKRPPSAFFLFCSEYRPKIKGEHPGLSIGDVAKKLGEMWNNTAADDKQPYEKKAAKLKEKYEKDIAAYRAKGKPDAAKKGVKDPNAPKRPPSAFFLFCSEYRPKIKGEHPGLSIGDVAKKLGEMWNNTAADDKQPYEKKAAKLKEKYEKDIAAYRAKGKPDAAKKGV
9 | 8.19 µM | 7.1 µM | 0.159 s⁻¹ | 22000 M⁻¹ s⁻¹ | – | – | – | – | – | – | – | – | – | FR-HMGB1 Box B 89-174 (full HMG Box with flanking regions) (ligand, biotinylated in BLI and NMR, also called complete Box B; not shown: C-terminal biotinylation tag) SMKDPNAPKRPPSAFFLFCSEYRPKIKGEHPGLSIGDVAKKLGEMWNNTAADDKQPYEKKAAKLKEKYEKDIAAYRAKGKPDAAKKGV
10 | – | – | – | – | 0.2 µM | 0.043 s⁻¹ | 215000 M⁻¹ s⁻¹ | 1.3 µM | 0.00435 µM | – | – | – | 0.2 to 1.3 µM | disulfide HMGB1, full-length (ligand, disulfide bond between Cys 22 and Cys 44, also called DS-HMGB1; FL-DS-HMGB1) GKGDPKKPRGKMSSYAFFVQTCREEHKKKHPDASVNFSEFSKKCSERWKTMSAKEKGKFEDMAKADKARYEREMKTYIPPKGETKKKFKDPNAPKRPPSAFFLFCSEYRPKIKGEHPGLSIGDVAKKLGEMWNNTAADDKQPYEKKAAKLKEKYEKDIAAYRAKGKPDAAKKGVVKAEKSKKKKEEEEDEEDEEDEEEEEDEEDEDEEEDDDDE
11 | 8.79 µM | 11.7 µM | 0.145 s⁻¹ | 12000 M⁻¹ s⁻¹ | 0.9 µM | 0.015 s⁻¹ | 17000 M⁻¹ s⁻¹ | 3 µM | 0.00722 µM | – | – | – | – | non-oxidizable 3S-HMGB1, full-length (1-214) (ligand, Biotinylated (c022) in BLI with CXCL12, His6-tagged in the reverse peptide array; also called 3S-FL HMGB1 (c022)) GKGDPKKPRGKMSSYAFFVQTSREEHKKKHPDASVNFSEFSKKSSERWKTMSAKEKGKFEDMAKADKARYEREMKTYIPPKGETKKKFKDPNAPKRPPSAFFLFSSEYRPKIKGEHPGLSIGDVAKKLGEMWNNTAADDKQPYEKKAAKLKEKYEKDIAAYRAKGKPDAAKKGVVKAEKSKKKKEEEEDEEDEEDEEEEEDEEDEDEEEDDDDE
